Test results published in patent US20250043302A1, “MUTATED HYDROXYPHENYLPYRUVATE DIOXYGENASE POLYPEPTIDE, AND CODING GENE AND USE THEREOF” (BEIJING DABEINONG BIOTECHNOLOGY CO., LTD., priority 2021, published 2025).

Key:
Assay type in all cases: in vivo
[1] = system: Arabidopsis thaliana T1 plants; experiment: Isoxaflutole tolerance of transgenic Arabidopsis thaliana T1 plants (spray, bleached leaf area grade, damage score); conditions: for Classification and statistics of the grade of pesticide damage Grade 0 / Classification and statistics of the grade of pesticide damage Grade 1 / Classification and statistics of the grade of pesticide damage Grade 2 / Classification and statistics of the grade of pesticide damage Grade 3: number of plants in grade; for Classification and statistics of the grade of pesticide damage: Grade 0 / Classification and statistics of the grade of pesticide damage: Grade 1 / Classification and statistics of the grade of pesticide damage: Grade 2 / Classification and statistics of the grade of pesticide damage: Grade 3: number of plants;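 on Scores: Weighted damage index from 0 to 100 where higher means more damage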
In short: (§1)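 Damage was assessed by bleaching grade (0 none; 1 <50%; 2 >50%; 3 100% of leaf area) one week after spraying. Sprays on 18-day-old T1 and wild-type plants used field-rate multiples: topramezone 25–200, isoxaflutole 35–280, mesotrione 52.5–420 g ai/ha.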

[2] = system: Arabidopsis thaliana T1 plants; experiment: Mesotrione tolerance of transgenic Arabidopsis thaliana T1 plants (spray, bleached leaf area grade, damage score); design: Scores: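 damage score 0-100 computed as Σ(N×S)/(T×M)×100 over grades 0-3 with higher meaning more damage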; conditions: for Classification and statistics of the grade of pesticide damage Grade 0 / Classification and statistics of the grade of pesticide damage Grade 1 / Classification and statistics of the grade of pesticide damage Grade 2 / Classification and statistics of the grade of pesticide damage Grade 3: number of plants in grade; for Classification and statistics of the grade of pesticide damage: Grade 0 / Classification and statistics of the grade of pesticide damage: Grade 1 / Classification and statistics of the grade of pesticide damage: Grade 2 / Classification and statistics of the grade of pesticide damage: Grade 3: number of plants
In short: as §1

[3] = system: Arabidopsis thaliana T1 plants; experiment: Topramezone tolerance of transgenic Arabidopsis thaliana T1 plants (spray, bleached leaf area grade, damage score); conditions: for Classification and statistics of the grade of pesticide damage: Grade 0 / Classification and statistics of the grade of pesticide damage: Grade 1 / Classification and statistics of the grade of pesticide damage: Grade 2 / Classification and statistics of the grade of pesticide damage: Grade 3: number of plants; for Classification and statistics of the grade of pesticide damage: Grade 0 / Classification and statistics of the grade of pesticide damage: Grade 1 / Classification and statistics of the grade of pesticide damage: Grade 2 / Classification and statistics of the grade of pesticide damage: Grade 3 / Scores / Resistance evaluation: 7 DAT, Table 1; for Scores: pesticide damage score 0-100
Source text: T1 transformants were initially selected from the untransformed seeds using a glufosinate selection scheme. The Arabidopsis thaliana T1 plants (AsHPPD-02) into which the AsHPPD-02 nucleotide sequence was introduced, the Arabidopsis thaliana T1 plants (AsHPPDm-F372A-02) into which the AsHPPDm-F372A-02 nucleotide sequence was introduced, the Arabidopsis thaliana T1 plants (AsHPPDm-F383W-02) into which the AsHPPDm-F383W-02 nucleotide sequence was introduced, the Arabidopsis thaliana T1 plants (AsHPPDm-F372A-F383W-02) into which the AsHPPDm-F372A-F383W-02 nucleotide sequence was introduced, the Arabidopsis thaliana T1 plants (DBN11726N) into which the control recombinant expression vector DBN11726N was introduced, and the wild-type Arabidopsis thaliana plants (CK) (18 days after sowing) were sprayed respectively with topramezone at three concentrations (100 g ai/ha (four-fold field concentration, 4×), 200 g ai/ha (eight-fold field concentration, 8×), and 0 g ai/ha (water, 0×)), isoxaflutole at three concentrations (140 g ai/ha (two-fold field concentration, 2×), 280 g ai/ha (four-fold field concentration, 4×), and 0 g ai/ha (water, 0×)), and mesotrione at three concentrations (210 g ai/ha (two-fold field concentration, […]), 420 g ai/ha (four-fold field concentration, 4×), and 0 g ai/ha (water, 0×)), to determine the tolerance of Arabidopsis thaliana to the herbicides. The degree of damage caused by the herbicide was measured for each plant according to the proportion of bleached leaf area (the proportion of bleached leaf area=bleached leaf area/total leaf area×100%) 7 days after spraying (7 DAT): the case where there is basically no bleached phenotype is defined as grade 0, the case where the proportion of bleached leaf area is less than 50% is defined as grade 1, the case where the proportion of bleached leaf area is more than 50% is defined as grade 2, and the case where the proportion of bleached leaf area is 100% grade is defined as grade 3.
According to the method as described above in point 6 of Example 1, the aforementioned Arabidopsis thaliana T1 plants and wild-type Arabidopsis thaliana plants (CK) (18 days after sowing) were sprayed respectively with topramezone at three concentrations (25 g ai/ha (one-fold field concentration, 1×). 100 g ai/ha (four-fold field concentration, 4×), and 0 g ai/ha (water, 0×)), isoxaflutole at three concentrations (35 g ai/ha (half-fold field concentration, 0.5×). 70 g ai/ha (one-fold field concentration, 1×), and 0 g ai/ha (water, 0×)), and mesotrione at three concentrations (52.5 g ai/ha (half-fold field concentration, 0.5×), 105 g ai/ha (one-fold field concentration, 1×), and 0 g ai/ha (water, 0×)) to detect the tolerance of Arabidopsis thaliana to the herbicides.
According to the method as described above in point 6 of Example 1, the aforementioned Arabidopsis thaliana T1 plants and wild-type Arabidopsis thaliana plants (CK) (18 days after sowing) were sprayed with topramezone at three different concentrations (i.e., 100 g ai/ha (four-fold field concentration, 4×), 200 g ai/ha (eight-fold field concentration, 8×) and 0 g ai/ha (water, 0×)), isoxaflutole at three different concentrations (i.e., 140 g ai/ha (two-fold field concentration, 2×), 280 g ai/ha (four-fold field concentration, 4×) and 0 g ai/ha (water, 0×)), and mesotrione at three different concentrations (i.e., 210 g ai/ha (two-fold field concentration, 2×), 420 g ai/ha (four-fold field concentration, 4×) and 0 g ai/ha (water, 0×)) respectively to detect the herbicide tolerance of Arabidopsis thaliana. […]

[4] = isoxaflutole 140 g ai/ha (2×), 7 DAT, Table 2
[5] = isoxaflutole 280 g ai/ha (4×), 7 DAT, Table 2
[6] = mesotrione 210 g ai/ha (two-fold field concentration), 7 DAT, Table 3
[7] = mesotrione 420 g ai/ha (4×), 7 DAT, Table 3

B1: AsHPPDm-F372A-02: nucleotide sequence encoding Avena sativa HPPD with F372A; vector DBN11728 (nucleic acid)
DNA: ATGCCACCTACTCCAGCTACAGCTACTGGTGCTGCTGCTGCTGCCGTTACTCCTGAGCACGCTGCCAGGTCATTCCCCAGGGTGGTTCGCGTGAACCCCAGATCTGATAGGTTCCCAGTTCTGAGCTTCCACCATGTTGAGCTGTGGTGCGCTGATGCTGCTTCTGCTGCTGGCAGGTTCTCTTTCGCTCTTGGTGCTCCACTCGCTGCTAGATCTGATCTGTCTACAGGAAATAGCGCTCATGCCTCACTCCTGCTTCGCTCAGGTGCTTTGGCCTTCCTCTTCACCGCTCCATATGCTCCCCCACCTCAGGAGGCTGCTACTGCTGCTGCTACAGCCTCCATTCCAAGCTTCTCAGCTGATGCCGCTAGAACCTTCGCTGCTGCTCATGGACTTGCCGTGAGGTCTGTTGGTGTTCGCGTGGCTGATGCTGCTGAGGCTTTCAGAGTTTCCGTTGCCGGCGGAGCTAGGCCAGCTTTCGCTCCTGCTGATTTGGGACATGGTTTCGGCCTGGCTGAGGTTGAGCTTTACGGTGACGTGGTTCTCCGCTTCGTGTCTTACCCAGATGAGACTGACCTGCCTTTCCTTCCCGGCTTCGAGAGAGTTTCCTCTCCTGGTGCCGTGGATTACGGCCTGACAAGGTTCGACCACGTGGTTGGAAACGTTCCCGAGATGGCTCCAGTGATCGATTACATGAAGGGCTTCCTTGGATTCCATGAGTTCGCCGAGTTCACTGCTGAGGACGTGGGAACCACTGAGTCCGGTTTGAACTCTGTGGTTCTCGCCAACAATTCTGAGGCTGTTTTGCTCCCTCTGAATGAGCCTGTGCATGGAACCAAGAGGAGAAGCCAGATTCAAACTTACCTGGAGTACCACGGTGGCCCTGGAGTTCAGCATATCGCCCTTGCTTCTAATGATGTGTTGCGCACACTCAGAGAGATGCGCGCCAGAACCCCCATGGGAGGTTTCGAGTTCATGGCCCCACCACAGGCTAAGTACTACGAGGGCGTTAGAAGGATTGCTGGAGACGTGTTGAGCGAGGAGCAGATCAAGGAGTGCCAAGAGCTGGGTGTTCTTGTGGATAGGGATGACCAGGGCGTTCTGCTTCAAATTGCCACTAAGCCAGTGGGCGACCGCCCTACATTCTTCCTTGAGATGATTCAAAGAATCGGCTGCATGGAGAAGGATGAGGTTGGACAGGAGTACCAAAAGGGCGGATGCGGTGGCTTCGGAAAGGGTAACTTCAGCGAGTTGTTCAAGTCAATCGAGGACTACGAGAAGAGCCTCGAGGTGAAGCAGTCAGTGGTTGCCCAAAAGTCCTGA
modifications: AsHPPDm-F372A-02 Nucleotide Sequence
notes: vector DBN11728
tolerance to isoxaflutole (in words) ([1]; in vivo): different degrees of tolerance
Resistance evaluation ([1]; isoxaflutole 140 g ai/ha): Moderately
Scores ([1]; isoxaflutole 140 g ai/ha): 33
Resistance evaluation [1, 4]: moderately
Classification and statistics of the grade of pesticide damage Grade 0 ([1]; isoxaflutole 140 g ai/ha): 5
Classification and statistics of the grade of pesticide damage Grade 1 ([1]; isoxaflutole 140 g ai/ha): 6
Classification and statistics of the grade of pesticide damage Grade 2 ([1]; isoxaflutole 140 g ai/ha): 5
Classification and statistics of the grade of pesticide damage Grade 3 ([1]; isoxaflutole 140 g ai/ha): 0
Resistance evaluation ([1]; isoxaflutole 280 g ai/ha): Poorly
Scores ([1]; isoxaflutole 280 g ai/ha): 67
Resistance evaluation [1, 5]: poorly resistant (poorly resistant plants (scores 34-67))
Classification and statistics of the grade of pesticide damage Grade 0 ([1]; isoxaflutole 280 g ai/ha): 0
Classification and statistics of the grade of pesticide damage Grade 1 ([1]; isoxaflutole 280 g ai/ha): 0
Classification and statistics of the grade of pesticide damage Grade 2 ([1]; isoxaflutole 280 g ai/ha): 16
Classification and statistics of the grade of pesticide damage Grade 3 ([1]; isoxaflutole 280 g ai/ha): 0
tolerance to isoxaflutole (resistance class) ([1]; isoxaflutole at four-fold field concentration): poorly-resistant
tolerance to isoxaflutole (resistance class) ([1]; isoxaflutole at two-fold field concentration): moderately-resistant
Classification and statistics of the grade of pesticide damage: Grade 0 [1, 4]: 5
Classification and statistics of the grade of pesticide damage: Grade 1 [1, 4]: 6
Classification and statistics of the grade of pesticide damage: Grade 2 [1, 4]: 5
Classification and statistics of the grade of pesticide damage: Grade 3 [1, 4]: 0
Classification and statistics of the grade of pesticide damage: Grade 0 [1, 5]: 0
Classification and statistics of the grade of pesticide damage: Grade 1 [1, 5]: 0
Classification and statistics of the grade of pesticide damage: Grade 2 [1, 5]: 16
Classification and statistics of the grade of pesticide damage: Grade 3 [1, 5]: 0
Scores ([1]; pesticide damage score 0-100, isoxaflutole 140 g ai/ha (2×), 7 DAT, Table 2): 33
Scores ([1]; pesticide damage score 0-100, isoxaflutole 280 g ai/ha (4×), 7 DAT, Table 2): 67
tolerance to mesotrione (in words) ([2]; in vivo): different degrees of tolerance
Resistance evaluation ([2]; mesotrione 210 g ai/ha): Moderately
Scores ([2]; mesotrione 210 g ai/ha): 31
Resistance evaluation [2, 6]: moderately
Classification and statistics of the grade of pesticide damage Grade 0 ([2]; mesotrione 210 g ai/ha): 5
Classification and statistics of the grade of pesticide damage Grade 1 ([2]; mesotrione 210 g ai/ha): 7
Classification and statistics of the grade of pesticide damage Grade 2 ([2]; mesotrione 210 g ai/ha): 4
Classification and statistics of the grade of pesticide damage Grade 3 ([2]; mesotrione 210 g ai/ha): 0
Resistance evaluation ([2]; mesotrione 420 g ai/ha): Poorly resistant
Scores ([2]; mesotrione 420 g ai/ha): 50
Resistance evaluation [2, 7]: poorly resistant (poorly resistant plants (scores 34-67))
Classification and statistics of the grade of pesticide damage Grade 0 ([2]; mesotrione 420 g ai/ha): 0
Classification and statistics of the grade of pesticide damage Grade 1 ([2]; mesotrione 420 g ai/ha): 8
Classification and statistics of the grade of pesticide damage Grade 2 ([2]; mesotrione 420 g ai/ha): 8
Classification and statistics of the grade of pesticide damage Grade 3 ([2]; mesotrione 420 g ai/ha): 0
tolerance to mesotrione (resistance class) ([2]; mesotrione at four-fold field concentration): poorly-resistant
tolerance to mesotrione (resistance class) ([2]; mesotrione at two-fold field concentration): moderately-resistant
Classification and statistics of the grade of pesticide damage: Grade 0 [2, 6]: 5
Classification and statistics of the grade of pesticide damage: Grade 1 [2, 6]: 7
Classification and statistics of the grade of pesticide damage: Grade 2 [2, 6]: 4
Classification and statistics of the grade of pesticide damage: Grade 3 [2, 6]: 0
Classification and statistics of the grade of pesticide damage: Grade 0 [2, 7]: 0
Classification and statistics of the grade of pesticide damage: Grade 1 [2, 7]: 8
Classification and statistics of the grade of pesticide damage: Grade 2 [2, 7]: 8
Classification and statistics of the grade of pesticide damage: Grade 3 [2, 7]: 0
Scores ([2]; pesticide damage score 0-100, mesotrione 210 g ai/ha (two-fold field concentration), 7 DAT, Table 3): 31
Scores ([2]; pesticide damage score 0-100, mesotrione 420 g ai/ha (4×), 7 DAT, Table 3): 50
Classification and statistics of the grade of pesticide damage: Grade 0 ([3]; topramezone 100 g ai/ha (4×)): 16
Classification and statistics of the grade of pesticide damage: Grade 1 ([3]; topramezone 100 g ai/ha (4×)): 0
Classification and statistics of the grade of pesticide damage: Grade 2 ([3]; topramezone 100 g ai/ha (4×)): 0
Classification and statistics of the grade of pesticide damage: Grade 3 ([3]; topramezone 100 g ai/ha (4×)): 0
Classification and statistics of the grade of pesticide damage: Grade 0 ([3]; topramezone 200 g ai/ha (8×)): 16
Classification and statistics of the grade of pesticide damage: Grade 1 ([3]; topramezone 200 g ai/ha (8×)): 0
Classification and statistics of the grade of pesticide damage: Grade 2 ([3]; topramezone 200 g ai/ha (8×)): 0
Classification and statistics of the grade of pesticide damage: Grade 3 ([3]; topramezone 200 g ai/ha (8×)): 0
Scores ([3]; topramezone 100 g ai/ha (4×)): 0
Scores ([3]; topramezone 200 g ai/ha (8×)): 0
Resistance evaluation ([3]; topramezone 100 g ai/ha (4×)): highly resistant (highly resistant plants (scores 0-15))
Resistance evaluation ([3]; topramezone 200 g ai/ha (8×)): highly resistant (highly resistant plants (scores 0-15))
tolerance to topramezone (resistance class) ([3]; topramezone at four-fold or eight-fold field concentration): highly-resistant
